From publication PMC8384837, “Expanding the binding specificity for RNA recognition by a PUF domain”

Experiments:
PUF variant QFR/VFQ = PUF variant QFR/VFQ (human, UniProt Q14671 828-1176, S863Q;R864F;Q867R;N899V;Y900F); experiment: EMSA; 10 mM HEPES pH 7.3, 50 mM NaCl, 2 mM DTT, 0.05% Tween 20, 0.1 mg/ml BSA, 0.1 mg/ml yeast tRNA; ~10 nM RNA, 0-1 uM protein, 1 h on ice; 1.2% agarose gel, 1x TBE, room temperature; conditions: protein: recombinant; tags: N-terminal GST (pGEX-6P-1) removed by HRV3C protease; label: 5' 32P
PUF variant QFR/VFQ, sequence (Q14671 828-1176 S863Q/R864F/Q867R/N899V/Y900F): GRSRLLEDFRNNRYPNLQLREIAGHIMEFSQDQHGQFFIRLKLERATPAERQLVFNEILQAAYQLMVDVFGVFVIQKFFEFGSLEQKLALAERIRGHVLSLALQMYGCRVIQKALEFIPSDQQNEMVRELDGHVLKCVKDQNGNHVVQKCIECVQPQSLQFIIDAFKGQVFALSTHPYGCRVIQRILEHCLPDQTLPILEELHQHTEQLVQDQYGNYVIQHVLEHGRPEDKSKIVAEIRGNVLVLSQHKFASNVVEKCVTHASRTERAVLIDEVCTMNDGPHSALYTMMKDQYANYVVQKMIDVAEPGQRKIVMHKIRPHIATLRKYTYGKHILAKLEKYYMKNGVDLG

PUF design 2 = PUF design 2 (human, UniProt Q14671 828-1176, C935T;R936H;Q939E;N971T;H972F;Q975R); experiment: as above; conditions: protein: recombinant; tags: N-terminal GST (pGEX-6P-1) removed by HRV3C protease; label: 5' 32P
PUF design 2, sequence (Q14671 828-1176 C935T/R936H/Q939E/N971T/H972F/Q975R): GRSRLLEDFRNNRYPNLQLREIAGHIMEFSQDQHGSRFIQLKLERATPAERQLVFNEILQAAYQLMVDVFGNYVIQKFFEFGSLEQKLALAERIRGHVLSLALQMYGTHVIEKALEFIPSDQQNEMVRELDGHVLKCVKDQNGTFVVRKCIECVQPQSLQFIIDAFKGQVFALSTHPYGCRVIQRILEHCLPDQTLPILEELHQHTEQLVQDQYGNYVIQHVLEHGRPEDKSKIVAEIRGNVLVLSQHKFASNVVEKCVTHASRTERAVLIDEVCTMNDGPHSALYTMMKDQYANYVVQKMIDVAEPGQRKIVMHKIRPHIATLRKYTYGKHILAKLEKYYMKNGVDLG

**Q.** For GGUAAGUGUAAAACGUCUGCAU (ssRNA) [QFR/VFQ target RNA], which Kd (PUF variant QFR/VFQ) is on record?
**A.** The Kd was about 110 nM.

**Q.** GGUAAGUGUACGUAGUCUGCAU (ssRNA) [design 2 target RNA] was tested. Which Kd (PUF design 2) did it give?
**A.** The Kd was about 45 nM.

**Q.** Does GGUAAGUGUAAAUAGUCUGCAU (ssRNA) [wild-type NRE RNA] bind (PUF variant QFR/VFQ)?
**A.** Result: no binding

**Q.** Does GGUAAGUGUAAAUAGUCUGCAU (ssRNA) [wild-type NRE RNA] bind (PUF design 2)?
**A.** Result: no binding
